The record followed here is article PMC7617879.

The target of the assay is catalytic domain of MMP-14 (MMP-14CAT) (human). As to the kind of experiment: enzyme inhibition assay.

B1: N-TIMP2-S31PrK, P16035 27-153 (domain or fragment)
chain: CSCSPVHPQQAFCNADVVIRAKAVSEKEVDKGNDIYGNPIKRIQYEIKQIKMFKGPEKDIEFIYTAPSSAVCGVSLDVGGKKEYLIAGKAEGDGKMHITLCDFIVPWDTLSTTQKKSLNHRYQMGCE
modifications: here or on the partner: propargyl lysine (PrK) at position 31
In the case of B1, the inhibition constant Ki turned out to be 1.57 nM.
